The record followed here is patent publication US20220153832A1 (PIONYR IMMUNOTHERAPEUTICS, published 2022).

Assay [1] has as its target T1, recombinant cynomolgus MARCO protein (cynomolgus, UniProt A0A2K5X0Z2 65-519).
T1 construct: Construct not described; also called cyno MARCO; cynoMARCO
T1 sequence: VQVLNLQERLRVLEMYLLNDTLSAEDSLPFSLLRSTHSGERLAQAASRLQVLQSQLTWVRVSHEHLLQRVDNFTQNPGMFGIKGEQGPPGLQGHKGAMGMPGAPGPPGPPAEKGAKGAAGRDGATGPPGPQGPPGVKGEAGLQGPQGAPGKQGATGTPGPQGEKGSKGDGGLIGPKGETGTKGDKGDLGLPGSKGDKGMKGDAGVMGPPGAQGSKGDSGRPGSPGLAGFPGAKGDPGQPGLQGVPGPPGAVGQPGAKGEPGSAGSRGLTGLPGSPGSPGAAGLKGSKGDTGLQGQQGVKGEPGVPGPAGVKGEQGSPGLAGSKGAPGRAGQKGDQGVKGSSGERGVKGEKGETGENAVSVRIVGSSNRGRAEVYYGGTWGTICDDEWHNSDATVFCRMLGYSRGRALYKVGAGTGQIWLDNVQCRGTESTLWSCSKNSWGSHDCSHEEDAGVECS
As to the kind of experiment: SPR, multi cycle kinetics, cyno MARCO.

The target of another assay is T2, mVar3 (RG3028) (mouse, UniProt Q60754 150-518).
T2 construct: Mouse MARCO with the human residues Q452, Y472 and K473 (already in the entry)
T2 chain: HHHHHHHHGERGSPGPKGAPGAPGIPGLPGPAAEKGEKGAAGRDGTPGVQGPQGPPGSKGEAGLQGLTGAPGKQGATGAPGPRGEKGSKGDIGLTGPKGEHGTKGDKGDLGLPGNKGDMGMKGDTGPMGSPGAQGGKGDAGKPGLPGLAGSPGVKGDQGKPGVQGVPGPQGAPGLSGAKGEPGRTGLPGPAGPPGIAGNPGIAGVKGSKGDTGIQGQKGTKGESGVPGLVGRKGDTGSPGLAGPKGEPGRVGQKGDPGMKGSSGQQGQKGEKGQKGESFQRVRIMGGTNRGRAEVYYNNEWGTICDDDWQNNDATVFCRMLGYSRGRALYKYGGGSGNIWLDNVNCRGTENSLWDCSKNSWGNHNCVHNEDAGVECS
Briefly: binding to variant proteins, data not shown. A digest of the protocol: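 Binding to MARCO variant proteins was measured by biolayer interferometry at 37° C in ProbeLife kinetics buffer. Antibodies (200 nM) were captured on anti-mouse or anti-human Fc probes for 120 s between 60 s baselines. This was followed by association with 200 nM variant antigen and 5-10 minutes dissociation.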

In assay [2] the target is T3, N-terminally polyhistidine tagged human MARCO ECD (147-520), recombinant (human, UniProt Q9UEW3 147-520).
T3 construct: also called PI-RG-3000; recombinant human MARCO; not shown: N-terminal polyhistidine tag
T3 sequence: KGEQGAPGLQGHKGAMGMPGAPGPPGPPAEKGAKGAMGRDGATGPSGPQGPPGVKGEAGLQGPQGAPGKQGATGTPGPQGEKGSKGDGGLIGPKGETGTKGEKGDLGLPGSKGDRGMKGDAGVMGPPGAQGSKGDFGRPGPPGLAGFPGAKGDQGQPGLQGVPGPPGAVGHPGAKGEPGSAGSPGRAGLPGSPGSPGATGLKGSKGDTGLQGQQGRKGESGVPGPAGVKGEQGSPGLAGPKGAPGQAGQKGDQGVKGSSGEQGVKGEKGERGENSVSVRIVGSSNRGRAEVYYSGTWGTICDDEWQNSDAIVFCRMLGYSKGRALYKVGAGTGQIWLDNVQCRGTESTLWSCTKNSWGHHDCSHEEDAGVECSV
As to the kind of experiment: KD (nM) Human; method not given.

For assay [3], the target named is T1, recombinant cynomolgus MARCO protein. As to the kind of experiment: Biacore (SPR), recombinant cyno MARCO. (SPR reads the build-up and loss of mass on a sensor chip optically.)
Assay [4] concerns the target T3, N-terminally polyhistidine tagged human …. As to the kind of experiment: Biacore (SPR), recombinant human MARCO. A digest of the protocol:
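Antibodies were captured by anti-mouse Fc mAb amine-coupled to a CM4 chip (4500 RU target). Running buffer was 10 mM HEPES pH 7.4, 150 mM NaCl, 3 mM EDTA, 0.05% surfactant P20. Injections were at 0.625–10 nM with 90 s association and 600 s dissociation, and constants were fitted in BIAevaluation 3.1.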

For assay [5] the target is unchanged. Briefly: Biacore; sample oxidized with 0.5% H2O2 (24 hr, RT). The procedure:
(PBS)+1 mM AAPH for 6 h, 0.5 and 1.5% H₂O₂ in PBS for 24 h, which was compared to a previous experiment at 40° C. (PBS)+1 mM AAPH for 6 h. Post treatment the samples were analyzed by LC-MS/MS which identified the % modification on isolated peptides derived from the antibody after trypsin digest.
Binding of the stressed samples to recombinant human MARCO was assessed by Biacore.

Assay [6] concerns the target T4, Cynomolgus MARCO, full length, on cells (cynomolgus, UniProt A0A2K5X0Z2 1-519).
T4 construct: whole, on cells; also called cyno MARCO; CyMARCO
T4 sequence: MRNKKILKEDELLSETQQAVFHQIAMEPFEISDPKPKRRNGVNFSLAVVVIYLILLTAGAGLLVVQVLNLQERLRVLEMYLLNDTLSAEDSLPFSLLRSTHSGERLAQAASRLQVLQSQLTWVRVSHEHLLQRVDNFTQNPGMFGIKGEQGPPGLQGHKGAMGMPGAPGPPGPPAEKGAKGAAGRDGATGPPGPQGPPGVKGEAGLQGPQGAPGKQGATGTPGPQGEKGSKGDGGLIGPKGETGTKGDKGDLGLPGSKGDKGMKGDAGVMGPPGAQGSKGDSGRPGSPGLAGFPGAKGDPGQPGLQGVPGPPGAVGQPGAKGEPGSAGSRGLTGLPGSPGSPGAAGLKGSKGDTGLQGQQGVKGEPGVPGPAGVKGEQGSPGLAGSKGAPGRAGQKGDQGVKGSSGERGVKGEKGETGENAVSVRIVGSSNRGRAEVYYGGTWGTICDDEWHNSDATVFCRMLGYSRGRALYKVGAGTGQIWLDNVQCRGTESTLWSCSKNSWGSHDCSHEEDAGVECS
As to the kind of experiment: flow cytometry, cells overexpressing cyno MARCO; cyn (second of hu/cyn). A general note: Flow cytometry measures light scatter and fluorescence of single cells or particles in a stream.

Several values for one entry are separate records, joined by “and”; a condition that tells them apart may be missing. Identical values can stand only once.

B1: PI-HX-3031 (antibody)
heavy: QVQLKESGPGLVQPSQTLSLTCTVSGFSLTSYHVSWVRQPPGKGLEWMGAIWTGGSIAYNSLLKSRLSISRDTSKSQVFLKMNSLQTEDTATYYCARDLSDYYSSYTSFDYWGQGVMVTVSTAETTAPSVYPLAPGTALKSNSMVTLGCLVKGYFPEPVTVTWNSGALSSGVHTFPAVLQSGLYTLTSSVTVPSSTWSSQAVTCNVAHPASSTKVDKKIVPRECNPCGCTGSEVSSVFIFPPKTKDVLTITLTPKVTCVVVDISQNDPEVRFSWFIDDVEVHTAQTHAPEKQSNSTLRSVSELPIVHRDWLNGKTFKCKVNSGAFPAPIEKSISKPEGTPRGPQVYTMAPPKEEMTQSQVSITCMVKGFYPPDIYTEWKMNGQPQENYKNTPPTMDTDGSYFLYSKLNVKKETWQQGNTFTCSVLHEGLHNHHTEKSLSHSP
light: DIQMTQSPASLSTSLGETVSIECLASEGISNDLAWYQQKSGKSPQLLIYAASRLQDGVPSRFSGSGSGTRYSLKISGMQPEDEADYFCQQSYKYPLTFGSGTKLEIKRADAAPTVSIFPPSTEQLATGGASVVCLMNNFYPRDISVKWKIDGTERRDGVLDSVTDQDSKDSTYSMSSTLSLTKADYESHNLYTCEVVHKTSSSPVVKSFNRNEC
notes: Parental rat hybridoma, rat IgG2a
The Kd is the constant that tells how readily two partners part at equilibrium. With B1, the Kd in assay [1] turned out to be 109 pM.

B2: PI-3010-AB (antibody, human IgG1, kappa)
heavy: not shown
light: DIQMTQSPASLSTSLGETVSIECLASEGISNDLAWYQQKSGKSPQLLIYAASRLQDGVPSRFSGSGSGTRYSLKISGMQPEDEADYFCQQSYKYPLTFGSGTKLEIKRTVAAPSVFIFPPSDEQLKSGTASVVCLLNNFYPREAKVQWKVDNALQSGNSQESVTEQDSKDSTYSLSSTLTLSKADYEKHKVYACEVTHQGLSSPVTKSFNRGEC
For B2, the binding result with mVar3 (RG3028) is on record as “binds”. For the same molecule, the dissociation constant (Kd) in assay [2] is 430 pM and 640 pM.

B3: PI-3015-AB (antibody, human IgG1, kappa)
heavy: not shown
light: DIQMTQSPSSLSASVGDRVTITCRASEGISNDLAWYQQKPGKAPKLLIYAASRLQSGVPSRFSGSGSGTDYTLTISSMQPEDFATYYCQQSYKYPLTFGQGTKLEIKRTVAAPSVFIFPPSDEQLKSGTASVVCLLNNFYPREAKVQWKVDNALQSGNSQESVTEQDSKDSTYSLSSTLTLSKADYEKHKVYACEVTHQGLSSPVTKSFNRGEC
Usually koff stands for the rate constant with which the complex falls apart. Usually EC50 stands for the concentration giving half of the maximal effect. With B3, the results for the dissociation constant Kd in assay [3], in assay [4] and in assay [5] were 1650 pM, 510 pM and 1050 pM, respectively. Also, the dissociation rate constant (koff) in assay [4] came out at 0.000294 s⁻¹. Further, the EC50 in assay [6] was found to be 1160 pM.
